One molecule from US20200385441A1 (TECHNION RESEARCH AND DEVELOPMENT FOUNDATION, published 2020) can be followed below.

This test has as its target T1, human Melanoma-associated Chondroitin Sulfate Proteoglycan (MCSP) (human, UniProt Q6UVK1 30-2322).
T1 construct: whole, on cells; also called CSPG4; NG2
Kind of test: flow cytometry on B16F10-MCSP (C25) cells, detected with Strep-PE or fold-specific anti-H-2K antibody.

T1 sequence (Q6UVK1 30-2322): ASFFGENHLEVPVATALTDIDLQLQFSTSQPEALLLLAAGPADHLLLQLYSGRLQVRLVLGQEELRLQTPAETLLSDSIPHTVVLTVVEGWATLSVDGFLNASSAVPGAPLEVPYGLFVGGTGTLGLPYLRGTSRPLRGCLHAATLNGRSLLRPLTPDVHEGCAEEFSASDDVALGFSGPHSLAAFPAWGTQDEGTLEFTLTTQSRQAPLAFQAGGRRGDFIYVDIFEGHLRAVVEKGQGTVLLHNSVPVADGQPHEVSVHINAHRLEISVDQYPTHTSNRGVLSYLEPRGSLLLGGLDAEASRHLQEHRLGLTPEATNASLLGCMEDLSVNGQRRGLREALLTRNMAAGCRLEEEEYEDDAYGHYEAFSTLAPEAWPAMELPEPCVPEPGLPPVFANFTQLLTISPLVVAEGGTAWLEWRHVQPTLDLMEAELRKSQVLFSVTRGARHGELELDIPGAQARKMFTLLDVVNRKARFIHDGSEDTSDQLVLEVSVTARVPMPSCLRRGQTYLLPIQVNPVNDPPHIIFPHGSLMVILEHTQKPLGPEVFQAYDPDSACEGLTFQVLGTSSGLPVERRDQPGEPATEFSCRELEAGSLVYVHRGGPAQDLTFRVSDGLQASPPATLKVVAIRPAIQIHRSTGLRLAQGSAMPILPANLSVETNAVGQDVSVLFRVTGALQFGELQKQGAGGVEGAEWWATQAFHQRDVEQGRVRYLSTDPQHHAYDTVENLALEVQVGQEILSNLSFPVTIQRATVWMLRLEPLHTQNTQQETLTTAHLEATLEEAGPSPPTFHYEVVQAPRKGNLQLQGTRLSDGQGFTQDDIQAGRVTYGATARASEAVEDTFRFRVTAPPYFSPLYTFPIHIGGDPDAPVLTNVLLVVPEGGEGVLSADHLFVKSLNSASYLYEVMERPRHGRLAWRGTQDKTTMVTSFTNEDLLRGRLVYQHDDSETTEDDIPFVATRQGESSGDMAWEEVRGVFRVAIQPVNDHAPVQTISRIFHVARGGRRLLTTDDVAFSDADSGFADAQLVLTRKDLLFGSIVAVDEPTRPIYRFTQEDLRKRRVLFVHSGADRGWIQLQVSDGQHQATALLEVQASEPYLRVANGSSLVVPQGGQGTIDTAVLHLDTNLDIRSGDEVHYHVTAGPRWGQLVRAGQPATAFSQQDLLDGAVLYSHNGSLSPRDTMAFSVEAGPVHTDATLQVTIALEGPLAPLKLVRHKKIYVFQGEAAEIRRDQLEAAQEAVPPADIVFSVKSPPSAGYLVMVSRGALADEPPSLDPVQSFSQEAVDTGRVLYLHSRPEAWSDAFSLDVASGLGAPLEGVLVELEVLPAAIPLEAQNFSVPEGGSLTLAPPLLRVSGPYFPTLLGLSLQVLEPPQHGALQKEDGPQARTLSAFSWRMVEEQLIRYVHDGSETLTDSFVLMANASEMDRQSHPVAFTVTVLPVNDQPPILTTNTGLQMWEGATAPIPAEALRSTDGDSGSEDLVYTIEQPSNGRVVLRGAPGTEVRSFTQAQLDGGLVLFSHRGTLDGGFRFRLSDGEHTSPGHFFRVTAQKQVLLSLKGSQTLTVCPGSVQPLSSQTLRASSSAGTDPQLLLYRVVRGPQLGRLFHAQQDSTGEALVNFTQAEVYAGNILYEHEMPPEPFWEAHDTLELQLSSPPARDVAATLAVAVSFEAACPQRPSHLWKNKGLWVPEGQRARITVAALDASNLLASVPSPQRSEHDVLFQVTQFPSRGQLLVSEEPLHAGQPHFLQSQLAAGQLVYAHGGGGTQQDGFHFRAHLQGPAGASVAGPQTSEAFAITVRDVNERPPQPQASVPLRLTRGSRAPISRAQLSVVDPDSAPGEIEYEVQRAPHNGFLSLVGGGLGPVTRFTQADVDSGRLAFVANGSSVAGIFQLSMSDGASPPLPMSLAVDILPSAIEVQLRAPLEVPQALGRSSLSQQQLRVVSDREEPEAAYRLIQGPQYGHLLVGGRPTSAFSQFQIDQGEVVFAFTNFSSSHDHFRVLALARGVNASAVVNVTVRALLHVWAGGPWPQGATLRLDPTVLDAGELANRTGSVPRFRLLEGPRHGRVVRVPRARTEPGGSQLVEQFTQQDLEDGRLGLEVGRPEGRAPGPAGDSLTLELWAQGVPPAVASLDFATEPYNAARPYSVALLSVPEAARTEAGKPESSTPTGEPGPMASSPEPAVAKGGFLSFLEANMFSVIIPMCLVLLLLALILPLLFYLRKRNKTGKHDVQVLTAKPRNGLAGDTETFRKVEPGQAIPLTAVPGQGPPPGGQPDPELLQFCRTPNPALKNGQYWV

B1: BA3 biotinylated peptide-H-2Kd-anti-MCSP scFv fusion protein, 20 amino acid β2M-MHC linker (peptide-MHC)
chain: TYQRTRALVGGGGSGGGGSGGGGSIQKTPQIQVYSRHPPENGKPNILNCYVTQFHPPHIEIQMLKNGKKIPKVEMSDMSFSKDWSFYILAHTEFTPTETDTYACRVKHVSMAEPKTVYWDRDMGGGGSGGGGSGGGGSGGGGSGPHSLRYFVTAVSRPGLGEPRFIAVGYVDDTQFVRFDSDADNPRFEPRAPWMEQEGPEYWEEQTQRAKSDEQWFRVSLRTAQRYYNQSKGGSHTFQRMFGCDVGSDWRLLRGYQQFAYDGRDYIALNEDLKTWTAADTAALITRRKWEQAGDAEYYRAYLEGECVEWLRRYLELGNETLLRTDSPKAHVTYHPRSQVDVTLRCWALGFYPADITLTWQLNGEDLTQDMELVETRPAGDGTFQKWAAVVVPLGKEQNYTCHVHHKGLPEPLTLRWKLPPSTASGGQVKLQQSGGGLVQPGGSMKLSCVVSGFTFSNYWMNWVRQSPEKGLEWIAEIRLKSNNFGRYYAESVKGRFTISRDDSKSSAYLQMINLRAEDTGIYYCTSYGNYVGHYFDHWGQGTTVTVSSGGGGSGGGGSGGGGSDIELTQSPKFMSTSVGDRVSVTCKASQNVDTNVAWYQQKPGQSPEPLLFSASYRYTGVPDRFTGSGSGTDFTLTISNVQSEDLAEYFCQQYNSYPLTFGGGTKLEIKRAHHHHHHGLNDIFEAQKIEWH
notes: also called BA-biotin fusion molecule; biotinylated ScFv-MHC molecule
For B1, the binding result was “binds”.
